T1: hClaudin 18.2 peptide 18.2EL1-A (human)
T1 construct: also called peptide A; A peptide
T1 peptide: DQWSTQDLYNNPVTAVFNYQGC

T2: hClaudin 18.2 peptide 18.2EL1-E (human)
T2 construct: also called peptide E; E peptide
T2 peptide: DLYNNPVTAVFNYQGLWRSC


What was measured:
[1] = target: T3, human Claudin 18.2 (hClaudin18.2) (human, UniProt P56856-2 1-261); experiment: flow cytometry on CHO cells overexpressing claudin18.2, scFv-Fc fusion protein
T3 construct: whole, on cells; also called CLDN18.2; hClaudin18.2-CHO
Method: CHO overexpressing claudin18.2 cells were prepared and centrifuged at 300 g for 5 minutes, then resuspended in PBS, and this step was repeated twice. Finally, the concentration was adjusted to 3E+06 cells/mL with PBS. […] CHO overexpressing claudin18.1 cells and CHO overexpressing claudin18.2 cells were laid out in two rows of transparent 96 round-bottomed wells, each with 100 μL, and then the antibodies were added to the cells in order and mixed evenly at 1:1. Each was set blank wells and negative wells. The mixture was put in a refrigerator at 4° C. and incubated for 1 hour. After the incubation, the mixture was centrifuged at 500 g for 3 min in a large-capacity benchtop high-speed centrifuge, then resuspended in PBS, and this step was repeated three times. The PE-labeled goat anti-human secondary antibody was diluted to a concentration of 1:500, and 100 μL was added to each well. The blank wells were left alone. The mixture was put in a refrigerator at 4° C. and incubated for 30 min. After the incubation, the mixture was centrifuged at 500 g for 3 min in a large-capacity tabletop high-speed centrifuge, then resuspended in PBS, and this step was repeated three times. Finally, 180 μL of PBS was added to each well and BDverse flow cytometer was used to test.

[2] = target: T3, human Claudin 18.2 (hClaudin18.2); experiment: cell-based or functional assay
[3] = target: T3, human Claudin 18.2 (hClaudin18.2); experiment: flow cytometry on CHO cells overexpressing claudin18.2, purified murine antibody
Method: CHO overexpressing claudin18.1 cells and CHO overexpressing claudin18.2 cells were prepared, centrifuged at 300 g for 5 minutes, then resuspended in PBS, and this step was repeated twice. Finally, the concentration was adjusted to 3E+06 cells/mL with PBS. […] CHO overexpressing claudin18.1 cells and CHO overexpressing claudin18.2 cells were laid out in two rows of transparent 96 round-bottomed wells, each with 100 μL, and then the antibodies were added to the cells in order and mixed evenly at 1:1. Each was set blank wells and negative wells. The mixture was put in a refrigerator at 4° C. and incubated for 1 hour. After the incubation, the mixture was centrifuged at 500 g for 3 min in a large-capacity benchtop high-speed centrifuge, then resuspended in PBS, and this step was repeated three times. The PE-labeled goat anti-mouse secondary antibody was diluted to a concentration of 1:500, and 100 μL was added to each well. The blank wells were left alone. The mixture was put in a refrigerator at 4° C. and incubated for 30 min. After the incubation, the mixture was centrifuged at 500 g for 3 min in a large-capacity tabletop high-speed centrifuge, then resuspended in PBS, and this step was repeated three times. Finally, 180 μL of PBS was added to each well and BDverse flow cytometer was used to test.

[4] = target: T1, hClaudin 18.2 peptide 18.2EL1-A; experiment: peptide competition: antibody pre-incubated with peptide, then flow cytometry on CHO cells overexpressing claudin18.2
[5] = target: T2, hClaudin 18.2 peptide 18.2EL1-E; experiment: as above

ADCC reporter (Jurkat-NFAT-Luc-CD16 luciferase), half-peak concentration EC50, target cell BXPC-3-Claudin 18.2 [2] | ADCC reporter (Jurkat-NFAT-Luc-CD16 luciferase), half-peak concentration EC50, target cell Capan-1-Claudin 18.2 [2] | ADCC reporter (Jurkat-NFAT-Luc-CD16 luciferase), half-peak concentration EC50, target cell SK-GT-Claudin 18.2 [2] | Binder | CDC activity (CCK8 cell viability, OD450), half inhibitory concentration IC50, target cell KATOIII-3-Claudin 18.2 [2] | further results
 |  |  | m1E7-FC anti-Claudin 18.2 scFv-Fc fusion protein (Fc fusion, also called m1E7 (Fc fusion protein form); 1E7 scFv-Fc; not shown: detected wi) scFv: DIVMTQSPSSLSVTAGEKVTMSCKSSQSLLNSGNQKNYLTWYQQKPGQPPKLLIYWASTRESGVPDRFTGSGSGTDFTLTISSVQAEDLAVYYCQNDYSYPFTFGSGTKLEIKGGGGSGGGGSGGGGSQVQLQQPGSELVKPGASVKLSCKASGYTFTSYWMHWVKQRPGQGLEWIGMIHPNSGSTNYNEKFKSKATLTVDKSSSTAYMQLSSLTSEDSAVYYCARRYYGSISPDYWGQGTTLTVSS |  | EC50 [1]: ~2600 ng/mL
2.11 ng/mL | 2.68 ng/mL | 4.47 ng/mL | chimeric antibody 1B6 (antibody, human IgG1, kappa) heavy: not shown light: DIVMTQSPSSLTVTAGEKVTMSCKSSQSLFNSGNQKNYLTWYQQKPGQPPKLLIYWASTRESGVPDRFTGSGSGTDFTLTISSVQAEDLAVYFCQNDYSYPLTFGAGTKLELRRTVAAPSVFIFPPSDEQLKSGTASVVCLLNNFYPREAKVQWKVDNALQSGNSQESVTEQDSKDSTYSLSSTLTLSKADYEKHKVYACEVTHQGLSSPVTKSFNRGEC | 2660 ng/mL | 
2.7 ng/mL | 2.63 ng/mL | 7.07 ng/mL | chimeric antibody 1E7 (antibody, human IgG1, kappa) heavy: not shown light: DIVMTQSPSSLSVTAGEKVTMSCKSSQSLLNSGNQKNYLTWYQQKPGQPPKLLIYWASTRESGVPDRFTGSGSGTDFTLTISSVQAEDLAVYYCQNDYSYPFTFGSGTKLEIKRTVAAPSVFIFPPSDEQLKSGTASVVCLLNNFYPREAKVQWKVDNALQSGNSQESVTEQDSKDSTYSLSSTLTLSKADYEKHKVYACEVTHQGLSSPVTKSFNRGEC | 1570 ng/mL | 
 |  |  | m1E7 anti-Claudin 18.2 murine monoclonal antibody (antibody, mouse IgG2b, kappa, Murine antibody with full heavy and light chains; also called 1E7 (hybridoma); m1E7 mAb) heavy: QVQLQQPGSELVKPGASVKLSCKASGYTFTSYWMHWVKQRPGQGLEWIGMIHPNSGSTNYNEKFKSKATLTVDKSSSTAYMQLSSLTSEDSAVYYCARRYYGSISPDYWGQGTTLTVSSAKTTPPSVYPLAPGCGDTTGSSVTLGCLVKGYFPESVTVTWNSGSLSSSVHTFPALLQSGLYTMSSSVTVPSSTWPSQTVTCSVAHPASSTTVDKKLEPSGPISTINPCPPCKECHKCPAPNLEGGPSVFIFPPNIKDVLMISLTPKVTCVVVDVSEDDPDVQISWFVNNVEVHTAQTQTHREDYNSTIRVVSTLPIQHQDWMSGKEFKCKVNNKDLPSPIERTISKIKGLVRAPQVYILPPPAEQLSRKDVSLTCLVVGFNPGDISVEWTSNGHTEENYKDTAPVLDSDGSYFIYSKLNMKTSKWEKTDSFSCNVRHEGLKNYYLKKTISRSPGK light: DIVMTQSPSSLSVTAGEKVTMSCKSSQSLLNSGNQKNYLTWYQQKPGQPPKLLIYWASTRESGVPDRFTGSGSGTDFTLTISSVQAEDLAVYYCQNDYSYPFTFGSGTKLEIKRADAAPTVSIFPPSSEQLTSGGASVVCFLNNFYPKDINVKWKIDGSERQNGVLNSWTDQDSKDSTYSMSSTLTLTKDEYERHNSYTCEATHKTSTSPIVKSFNRNEC |  | EC50 [3]: ~100 ng/mL; binding result [4]: binds
 |  |  | m1B6 anti-Claudin 18.2 murine monoclonal antibody (antibody, mouse IgG2b, kappa, Murine antibody with full heavy and light chains; also called 1B6 (hybridoma); m1B6 mAb) heavy: EVQLQQSGPELVRPGASVKMSCKASGYTFTDYNMHWVKQSHGKSLEWIGYINPNNGGTSYNQKFKGKATLTVNKSSSTAYMELRSLTSEDSAVYYCVTTRYLAVWGTGTTVTVSSAKTTPPSVYPLAPGCGDTTGSSVTLGCLVKGYFPESVTVTWNSGSLSSSVHTFPALLQSGLYTMSSSVTVPSSTWPSQTVTCSVAHPASSTTVDKKLEPSGPISTINPCPPCKECHKCPAPNLEGGPSVFIFPPNIKDVLMISLTPKVTCVVVDVSEDDPDVQISWFVNNVEVHTAQTQTHREDYNSTIRVVSTLPIQHQDWMSGKEFKCKVNNKDLPSPIERTISKIKGLVRAPQVYILPPPAEQLSRKDVSLTCLVVGFNPGDISVEWTSNGHTEENYKDTAPVLDSDGSYFIYSKLNMKTSKWEKTDSFSCNVRHEGLKNYYLKKTISRSPGK light: DIVMTQSPSSLTVTAGEKVTMSCKSSQSLFNSGNQKNYLTWYQQKPGQPPKLLIYWASTRESGVPDRFTGSGSGTDFTLTISSVQAEDLAVYFCQNDYSYPLTFGAGTKLELRRADAAPTVSIFPPSSEQLTSGGASVVCFLNNFYPKDINVKWKIDGSERQNGVLNSWTDQDSKDSTYSMSSTLTLTKDEYERHNSYTCEATHKTSTSPIVKSFNRNEC |  | EC50 [3]: ~60 ng/mL; binding result [4]: binds; binding result [5]: binds
 |  |  | m1B6-FC anti-Claudin 18.2 scFv-Fc fusion protein (Fc fusion, also called m1B6 (Fc fusion protein form); 1B6 scFv-Fc; not shown: detected wi) scFv: DIVMTQSPSSLTVTAGEKVTMSCKSSQSLFNSGNQKNYLTWYQQKPGQPPKLLIYWASTRESGVPDRFTGSGSGTDFTLTISSVQAEDLAVYFCQNDYSYPLTFGAGTKLELRGGGGSGGGGSGGGGSEVQLQQSGPELVRPGASVKMSCKASGYTFTDYNMHWVKQSHGKSLEWIGYINPNNGGTSYNQKFKGKATLTVNKSSSTAYMELRSLTSEDSAVYYCVTTRYLAVWGTGTTVTVSS |  | EC50 [1]: ~500 ng/mL
3.45 ng/mL | 3.48 ng/mL | 9.06 ng/mL | IMAB362 control antibody (antibody, V domains shown) VH: QVQLQQPGAELVRPGASVKLSCKASGYTFTSYWINWVKQRPGQGLEWIGNIYPSDSYTNYNQKFKDKATLTVDKSSSTAYMQLSSPTSEDSAVYYCTRSWRGNSFDYWGQGTTLTVSS VL: DIVMTQSPSSLTVTAGEKVTMSCKSSQSLLNSGNQKNYLTWYQQKPGQPPKLLIYWASTRESGVPDRFTGSGSGTDFTLTISSVQAEDLAVYYCQNDYSYPFTFGSGTKLEIKR | 4890 ng/mL | 
